Paper PMC9352680, “A comprehensive thermodynamic model for RNA binding by the Saccharomyces cerevisiae Pumilio protein PUF4”
Substitutions are numbered along the chain they refer to. Numbers in names are those of the source.

T1: PUF4 RNA-binding domain (Saccharomyces cerevisiae, UniProt P25339 537-888)
T1 sequence: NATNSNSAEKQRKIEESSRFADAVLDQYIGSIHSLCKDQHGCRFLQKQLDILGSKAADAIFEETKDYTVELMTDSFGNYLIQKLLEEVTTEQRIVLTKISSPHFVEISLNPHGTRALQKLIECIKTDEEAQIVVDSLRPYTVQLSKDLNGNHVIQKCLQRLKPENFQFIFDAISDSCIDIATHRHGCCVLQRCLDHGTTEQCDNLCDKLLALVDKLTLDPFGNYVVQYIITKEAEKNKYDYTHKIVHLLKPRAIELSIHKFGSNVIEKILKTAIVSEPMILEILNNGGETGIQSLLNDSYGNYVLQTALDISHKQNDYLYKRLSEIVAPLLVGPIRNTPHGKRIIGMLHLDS

B1: Ic_S2_P4E.1_K4.1_C4.1_H4.1_A4.1_[T5G]_[A6C]_[T7A]_F4.1_[A9G]_T4.1 (ssRNA)
RNA: UUUGAUUAAUAUGAUAUCGUUCUUUCUUGUAGCAUGUUCUUUCUCGAUAUCAUAUUAAUCUUU
B2: Ic_S2_P4E.1_K4.1_C4.1_H4.1_A4.1_[T5G]_[A6C]_[T7C]_F4.1_[T8C]_T4.1 (ssRNA)
RNA: B1 RNA with A34C, U35C, G36A
B3: Ic_S2_P4E.1_K4.1_C4.1_H4.1_A4.1_[T5G]_[A6T]_[T7C]_F4.1_[T8C]_[A9G]_T4.1 (ssRNA)
RNA: B1 RNA with C33U, A34C, U35C
B4: Ic_S2_P4E.1_K4.1_C4.1_H4.1_A4.1_[T5G]_[A6T]_[T7A]_F4.1_T4.1 (ssRNA)
RNA: B1 RNA with C33U, G36A
B5: Ic_S2_P4E.1_K4.1_C4.1_H4.1_A4.1_[T5G]_[A6T]_[T7G]_F4.1_[T8C]_[A9T]_T4.1 (ssRNA)
RNA: B1 RNA with C33U, A34G, U35C, G36U
B6: Ic_S2_P4E.1_K4.1_C4.1_H4.1_A4.1_[T5G]_[A6C]_F4.1_[T8G]_[A9G]_T4.1 (ssRNA)
RNA: B1 RNA with A34U, U35G
B7: Ic_S2_P4E.1_K4.1_C4.1_H4.1_A4.1_[T5G]_[A6T]_F4.1_[T8C]_[A9G]_T4.1 (ssRNA)
RNA: B1 RNA with C33U, A34U, U35C
B8: Ic_S2_P4E.1_K4.1_C4.1_H4.1_A4.1_[T5G]_[A6C]_F4.1_[A9C]_T4.1 (ssRNA)
RNA: B1 RNA with A34U, G36C
B9: Ic_S2_P4E.1_K4.1_C4.1_H4.1_A4.1_[T5G]_[A6C]_[T7A]_F4.1_[T8C]_T4.1 (ssRNA)
RNA: B1 RNA with U35C, G36A
B10: Ic_S2_P4E.1_K4.1_C4.1_H4.1_A4.1_[T5G]_[A6T]_[T7C]_F4.1_[T8C]_T4.1 (ssRNA)
RNA: B1 RNA with C33U, A34C, U35C, G36A
B11: Ic_S2_P4E.1_K4.1_C4.1_H4.1_A4.1_[T5G]_[A6C]_[T7C]_F4.1_[T8A]_[A9G]_T4.1 (ssRNA)
RNA: B1 RNA with A34C, U35A
B12: Ic_S2_P4E.1_K4.1_C4.1_H4.1_A4.1_[T5G]_[A6T]_[T7G]_F4.1_[T8C]_[A9G]_T4.1 (ssRNA)
RNA: B1 RNA with C33U, A34G, U35C
B13: Ic_S2_P4E.1_K4.1_C4.1_H4.1_A4.1_[T5G]_[A6T]_F4.1_[T8G]_[A9C]_T4.1 (ssRNA)
RNA: B1 RNA with C33U, A34U, U35G, G36C
B14: Ic_S2_P4E.1_K4.1_C4.1_H4.1_A4.1_[T5G]_[A6C]_[T7A]_F4.1_[T8A]_T4.1 (ssRNA)
RNA: B1 RNA with U35A, G36A
B15: Ic_S2_P4E.1_K4.1_C4.1_H4.1_A4.1_[T5C]_[A6G]_[T7G]_F4.1_[T8C]_[A9C]_T4.1 (ssRNA)
RNA: B1 RNA with G32C, C33G, A34G, U35C, G36C
B16: Ic_S2_P4E.1_K4.1_C4.1_H4.1_A4.1_[T5G]_[A6T]_[T7C]_F4.1_[A9C]_T4.1 (ssRNA)
RNA: B1 RNA with C33U, A34C, G36C
B17: Ic_S2_P4E.1_K4.1_C4.1_H4.1_A4.1_[T5C]_[A6G]_[T7G]_F4.1_[A9T]_T4.1 (ssRNA)
RNA: B1 RNA with G32C, C33G, A34G, G36U
B18: Ic_S2_P4E.1_K4.1_C4.1_H4.1_A4.1_[T5G]_[A6C]_F4.1_[A9T]_T4.1 (ssRNA)
RNA: B1 RNA with A34U, G36U
B19: Ic_S2_P4E.1_K4.1_C4.1_H4.1_A4.1_[T5G]_[A6T]_[T7C]_F4.1_[A9T]_T4.1 (ssRNA)
RNA: B1 RNA with C33U, A34C, G36U
B20: Ic_S2_P4E.1_K4.1_C4.1_H4.1_A4.1_[T5G]_[A6C]_[T7C]_F4.1_[A9G]_T4.1 (ssRNA)
RNA: B1 RNA with A34C
B21: Ic_S2_P4E.1_K4.1_C4.1_H4.1_A4.1_[T5C]_[A6G]_[T7C]_F4.1_[T8C]_[A9G]_T4.1 (ssRNA)
RNA: B1 RNA with G32C, C33G, A34C, U35C
B22: Ic_S2_P4E.1_K4.1_C4.1_H4.1_A4.1_[T5G]_[A6C]_[T7C]_F4.1_T4.1 (ssRNA)
RNA: B1 RNA with A34C, G36A
B23: Ic_S2_P4E.1_K4.1_C4.1_H4.1_A4.1_[T5C]_[A6G]_[T7C]_F4.1_[T8G]_[A9C]_T4.1 (ssRNA)
RNA: B1 RNA with G32C, C33G, A34C, U35G, G36C
B24: Ic_S2_P4E.1_K4.1_C4.1_H4.1_A4.1_[T5G]_[A6C]_[T7C]_F4.1_[T8G]_[A9C]_T4.1 (ssRNA)
RNA: B1 RNA with A34C, U35G, G36C
B25: Ic_S2_P4E.1_K4.1_C4.1_H4.1_A4.1_[T5G]_[A6C]_F4.1_[T8C]_T4.1 (ssRNA)
RNA: B1 RNA with A34U, U35C, G36A
B26: Ib_S1_P3E.1_K3.1_C3.1_H3.1_[A4G]_A3.1_[A6C]_F3.1_T3.1 (ssRNA)
RNA: UCUCUUUGUGUCUAUCUCUU
B27: Ib_S1_P3E.1_K3.1_C3.1_H3.1_[T3C]_A3.1_[A6G]_F3.1_T3.1 (ssRNA)
RNA: UCUCUUUGCAUGUAUCUCUU
B28: Ib_S1_P3E.1_K3.1_C3.1_H3.1_[T3C]_A3.1_[T5A]_F3.1_T3.1 (ssRNA)
RNA: UCUCUUUGCAAAUAUCUCUU
B29: Ib_S1_P3E.1_K3.1_C3.1_H3.1_[A4G]_A3.1_[A6G]_F3.1_T3.1 (ssRNA)
RNA: UCUCUUUGUGUGUAUCUCUU

Target: T1, PUF4 RNA-binding domain
Assay: Mg; RNA-MaP; 20 mM Na-HEPES pH 7.4, 30 mM KOAc, 0.75 mM MgCl2, 0.1% Tween-20, 5% glycerol, 0.1 mg/mL BSA, 2 mM DTT; 25 C; 0.0125-409.6 nM protein
Settings: tags: N-His6-TEV cleaved; C-SNAP kept, Cy3B-labelled; label: tethered on chip by stalled RNA polymerase

Binder | Kd [nM]
B1 | 27.6
B2 | 1090
B3 | 732
B4 | 2.26
B5 | 478
B6 | 709
B7 | 550
B8 | 52.2
B9 | 828
B10 | 527
B11 | > 2300
B12 | 651
B13 | 588
B14 | 360
B15 | 830
B16 | 149
B17 | 109
B18 | 30.4
B19 | 41.9
B20 | 300
B21 | 501
B22 | 5.95
B23 | 573
B24 | > 2300
B25 | 266
B26 | 983
B27 | 535
B28 | > 2300
B29 | 178
